We go through three molecules from publication PMC3101103 (The Journal of Cell Biology, 2011).

Data set [1] deals with ACP-TM with the C-terminal YFP fragment at its C terminus (rabbit | not stated). Put plainly: split reporter.
Data set [2] deals with N-formyl peptide receptor (FPR), nonactivating mutant D71A (UniProt P21462). Kind of data set: TIRF imaging, time course of surface-bound fluorescence.
Data set [3] has the same target. Put plainly: single-molecule TIRF imaging, 2D-3D Scatchard plot.
Data set [4] deals with the molecule itself. Put plainly: single-molecule TIRF imaging, duration of colocalization events.
Data set [5] deals with the molecule itself. Kind of data set: single-molecule TIRF imaging, spot-intensity histograms against expression level.

Turning to “ACP-TM with the N-terminal YFP fragment at its C terminus (from UniProt P42212 1-155)”, the corrected lifetime of BiFC dimers in data set [1] was 163 ms.
As for “N-formyl-Nle-Leu-Phe-Nle-Tyr-Lys conjugated with Alexa Fluor 594 (peptide)”, in data set [2], the kon came to 7.6e+06 M⁻¹ s⁻¹. In data set [3], this molecule displayed a Kd of 2.2 nM.

B1: N-formyl peptide receptor (FPR), nonactivating mutant D71A (receptor, UniProt P21462 1-350, looked up)
chain: METNSSLPTNISGGTPAVSAGYLFLDIITYLVFAVTFVLGVLGNGLVIWVAGFRMTHTVTTISYLNLAVAAFCFTSTLPFFMVRKAMGGHWPFGWFLCKFVFTIVDINLFGSVFLIALIALDRCVCVLHPVWTQNHRTVSLAKKVIIGPWVMALLLTLPVIIRVTTVPGKTGTVACTFNFSPWTNDPKERINVAVAMLTVRGIIRFIIGFSAPMSIVAVSYGLIATKIHKQGLIKSSRPLRVLSFVAAAFFLCWSPYQVVALIATVRIRELLQGMYKEIGIAVDVTSALAFFNSCLNPMLYVFMGQDFRERLIHALPASLERALTEDSTQTSDTATNSTLPSAEVELQAK
Molecule B1 returned a koff in data set [4] of 11 s⁻¹. Further, the “stoichiometry N” value in data set [5] came out at 2.
